The test concerns the target SeMet-substituted C. elegans ZYG-1 cryptic polo-box (CPB) domain (residues 338-564) (C. elegans). Kind of test: SEC-MALS. Background: SEC sorts molecules by how far they enter the pores of the column.

The term stoichiometry N denotes the number of molecules, sites or subunits per partner or assembly. For “SeMet-substituted C. elegans ZYG-1 cryptic polo-box (CPB) domain (residues 338-564) (domain or fragment)”, the stoichiometry N worked out at 2.

These data come from publication PMC4188077.
